Test results taken from article PMC2978336.

T1: DnaD-Cd196 (Bacillus subtilis, UniProt P39787 129-196)
T1 sequence: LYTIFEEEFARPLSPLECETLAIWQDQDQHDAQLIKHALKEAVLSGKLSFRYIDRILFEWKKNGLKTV

T2: DnaD-Cd (DnaD-Cd232) (Bacillus subtilis, UniProt P39787 129-232)
T2 sequence: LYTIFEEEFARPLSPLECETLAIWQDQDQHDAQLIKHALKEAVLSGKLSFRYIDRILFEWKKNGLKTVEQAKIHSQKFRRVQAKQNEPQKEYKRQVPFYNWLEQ

T3: DnaD-Cd206 (Bacillus subtilis, UniProt P39787 129-206)
T3 sequence: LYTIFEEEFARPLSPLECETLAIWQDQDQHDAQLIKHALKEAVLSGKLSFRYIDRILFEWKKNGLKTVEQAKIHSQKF

T4: DnaD-Cd215 (Bacillus subtilis, UniProt P39787 129-215)
T4 sequence: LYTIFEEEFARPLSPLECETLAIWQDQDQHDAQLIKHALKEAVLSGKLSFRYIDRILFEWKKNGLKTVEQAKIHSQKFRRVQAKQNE


Key:
DnaD-Cd196 [1] = molecular target: T1, DnaD-Cd196; experiment: EMSA
DnaD-Cd196 [2] = molecular target: T1, DnaD-Cd196; experiment: NMR
DnaD-Cd (DnaD-Cd232) = molecular target: T2, DnaD-Cd (DnaD-Cd232); experiment: NMR
DnaD-Cd206 = molecular target: T3, DnaD-Cd206; experiment: NMR
DnaD-Cd215 = molecular target: T4, DnaD-Cd215; experiment: NMR

Row | Binder | binding result (DnaD-Cd196 [1]) | binding result (DnaD-Cd196 [2]) | binding result (DnaD-Cd (DnaD-Cd232)) | binding result (DnaD-Cd206) | binding result (DnaD-Cd215)
1 | CTCAGTTTCCGCGCGATTGACCGGATT (ssDNA) [Y180AF ss probe] | no binding |  |  |  | 
2 | GTTATTGCTC (ssDNA) [10-mer ssDNA] |  | no binding | binds | no binding | binds
